According to patent publication US20260167699A1 (Chugai, published 2026):
Numbering of substitutions follows the chain as printed.

B1: GpH7-A5/GpH7-B3 variant Y296_09D/GpL16-k0 (antibody, human IgG1, kappa)
heavy 1: not shown
heavy 2: not shown
light: DIVMTQSPLSLPVTPGEPASISCQASESLVHSNRNTYLHWYLQKPGQSPQLLIYKVSNRFSGVPDRFSGSGSGTDFTLKISRVEAEDVGVYYCSQNTHVPPTFGQGTKVEIERTVAAPSVFIFPPSDEQLKSGTASVVCLLNNFYPREAKVQWKVDNALQSGNSQESVTEQDSKDSTYSLSSTLTLSKADYEKHKVYACEVTHQGLSSPVTKSFNRGEC
notes: heterodimerized IgG1, one H chain mutated; also called He Ab; copies: 1 + 1 + 2
B2: GpH7-A5/GpH7-B3 variant Y300_07I/GpL16-k0 (antibody, human IgG1, kappa)
heavy 1: not shown
heavy 2: not shown
light: B1 light
notes: as for B1
B3: GpH7-A5/GpH7-B3 variant Y296_20W/GpL16-k0 (antibody, human IgG1, kappa)
heavy 1: not shown
heavy 2: not shown
light: B1 light
notes: as for B1
B4: GpH7-A5/GpH7-B3 variant Y300_18N/GpL16-k0 (antibody, human IgG1, kappa)
heavy 1: not shown
heavy 2: not shown
light: B1 light
notes: as for B1
B5: GpH7-A5/GpH7-B3 variant Y300_03V/GpL16-k0 (antibody, human IgG1, kappa)
heavy 1: not shown
heavy 2: not shown
light: B1 light
notes: as for B1
B6: GpH7-A5/GpH7-B3 variant Y296_18N/GpL16-k0 (antibody, human IgG1, kappa)
heavy 1: not shown
heavy 2: not shown
light: B1 light
notes: as for B1
B7: GpH7-A5/GpH7-B3 variant Y300_10E/GpL16-k0 (antibody, human IgG1, kappa)
heavy 1: not shown
heavy 2: not shown
light: B1 light
notes: as for B1
B8: GpH7-A5/GpH7-B3 variant Y296_10E/GpL16-k0 (antibody, human IgG1, kappa)
heavy 1: not shown
heavy 2: not shown
light: B1 light
notes: as for B1
B9: GpH7-A5/GpH7-B3 variant Y300_16H/GpL16-k0 (antibody, human IgG1, kappa)
heavy 1: not shown
heavy 2: not shown
light: B1 light
notes: as for B1
B10: GpH7-A5/GpH7-B3 variant Y296_14T/GpL16-k0 (antibody, human IgG1, kappa)
heavy 1: not shown
heavy 2: not shown
light: B1 light
notes: as for B1
B11: GpH7-A5/GpH7-B3 variant Y300_09D/GpL16-k0 (antibody, human IgG1, kappa)
heavy 1: not shown
heavy 2: not shown
light: B1 light
notes: as for B1
B12: GpH7-A5/GpH7-B3 variant Y296_13S/GpL16-k0 (antibody, human IgG1, kappa)
heavy 1: not shown
heavy 2: not shown
light: B1 light
notes: as for B1
B13: GpH7-A5/GpH7-B3 variant Y296_19Q/GpL16-k0 (antibody, human IgG1, kappa)
heavy 1: not shown
heavy 2: not shown
light: B1 light
notes: as for B1
B14: GpH7-A5/GpH7-B3 variant Y296_11K/GpL16-k0 (antibody, human IgG1, kappa)
heavy 1: not shown
heavy 2: not shown
light: B1 light
notes: as for B1
B15: GpH7-A5/GpH7-B3 variant Y300_20W/GpL16-k0 (antibody, human IgG1, kappa)
heavy 1: not shown
heavy 2: not shown
light: B1 light
notes: as for B1
B16: GpH7-A5/GpH7-B3 variant Y300_14T/GpL16-k0 (antibody, human IgG1, kappa)
heavy 1: not shown
heavy 2: not shown
light: B1 light
notes: as for B1
B17: GpH7-A5/GpH7-B3 variant Y300_04F/GpL16-k0 (antibody, human IgG1, kappa)
heavy 1: not shown
heavy 2: not shown
light: B1 light
notes: as for B1
B18: GpH7-A5/GpH7-B3 variant Y300_08L/GpL16-k0 (antibody, human IgG1, kappa)
heavy 1: not shown
heavy 2: not shown
light: B1 light
notes: as for B1
B19: GpH7-A5/GpH7-B3 variant Y300_19Q/GpL16-k0 (antibody, human IgG1, kappa)
heavy 1: not shown
heavy 2: not shown
light: B1 light
notes: as for B1
B20: GpH7-A5/GpH7-B3 variant Y300_01G/GpL16-k0 (antibody, human IgG1, kappa)
heavy 1: not shown
heavy 2: not shown
light: B1 light
notes: as for B1
B21: GpH7-A5/GpH7-B3 variant Y296_12R/GpL16-k0 (antibody, human IgG1, kappa)
heavy 1: not shown
heavy 2: not shown
light: B1 light
notes: as for B1
B22: GpH7-A5/GpH7-B3 variant Y300_11K/GpL16-k0 (antibody, human IgG1, kappa)
heavy 1: not shown
heavy 2: not shown
light: B1 light
notes: as for B1
B23: GpH7-A5/GpH7-B3 variant Y300_13S/GpL16-k0 (antibody, human IgG1, kappa)
heavy 1: not shown
heavy 2: not shown
light: B1 light
notes: as for B1
B24: GpH7-A5/GpH7-B3 variant Y296_16H/GpL16-k0 (antibody, human IgG1, kappa)
heavy 1: not shown
heavy 2: not shown
light: B1 light
notes: as for B1
B25: GpH7-A5/GpH7-B3 variant Y300_06M/GpL16-k0 (antibody, human IgG1, kappa)
heavy 1: not shown
heavy 2: not shown
light: B1 light
notes: as for B1
B26: GpH7-A5/GpH7-B3 variant Y300_02A/GpL16-k0 (antibody, human IgG1, kappa)
heavy 1: not shown
heavy 2: not shown
light: B1 light
notes: as for B1

Molecular target: T1, FcγRIIIa extracellular domain, C-terminal His tag (human, UniProt P08637 17-208)
T1 construct: extracellular domain; also called 3a
Assay: SPR; He Ab vs HeCon Ab (GpH7-A5/GpH7-B3/GpL16-k0)=100;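 note: surface plasmon resonance at 25 °C with the test antibody captured on a sensor chip via antigenic peptide, protein L or protein A/G and FcγR flowed over as analyte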
Description: (§1) The antibody of interest was analyzed for its interaction with FcγR using a BiaCore™ T100, BiaCore™ A100, or BiaCore™ 4000 surface plasmon resonance system (GE Healthcare Japan Corp.). The running buffer used was HBS-EP+ (GE Healthcare Japan Corp.). The assay temperature was set to 25° C. The sensor chips used were: a chip prepared by immobilizing antigenic peptides onto Series S Sensor Chip CM5 (GE Healthcare Japan Corp.) by the amine coupling method; a chip prepared by immobilizing antigenic peptides biotinylated in advance onto Series S Sensor Chip SA (certified) (GE Healthcare Japan Corp.) through their interaction; a chip prepared by immobilizing protein L (ACTIGEN, BioVision, Inc.) onto Series S Sensor Chip CM5 (GE Healthcare Japan Corp.); and a chip prepared by immobilizing protein A/G (Thermo Fisher Scientific K.K.) onto Series S Sensor Chip CM5 (GE Healthcare Japan Corp.). The antibody of interest was captured onto any of these chips and allowed to interact with FcγR diluted with a running buffer. The antibody captured on the chip was washed off through the reaction of 10 mM glycine-HCl (pH 1.5) to regenerate the chip, which was repetitively used.

T1 sequence (P08637 other isoform, or with tags, fused parts or gaps): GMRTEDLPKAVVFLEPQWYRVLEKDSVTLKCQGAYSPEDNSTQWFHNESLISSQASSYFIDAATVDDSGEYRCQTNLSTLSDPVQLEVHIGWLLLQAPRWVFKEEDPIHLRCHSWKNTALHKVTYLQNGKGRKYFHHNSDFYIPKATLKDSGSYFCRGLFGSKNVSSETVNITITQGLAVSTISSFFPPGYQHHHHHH

Row | Binder | He/Con 3a
1 | B1 | 89%
2 | B2 | 103%
3 | B3 | 127%
4 | B4 | 96%
5 | B5 | 83.8%
6 | B6 | 67.9%
7 | B7 | 113%
8 | B8 | 76.8%
9 | B9 | 102%
10 | B10 | 60.7%
11 | B11 | 104%
12 | B12 | 58.1%
13 | B13 | 71.4%
14 | B14 | 53.3%
15 | B15 | 101%
16 | B16 | 92.8%
17 | B17 | 100%
18 | B18 | 114%
19 | B19 | 105%
20 | B20 | 88.6%
21 | B21 | 66.5%
22 | B22 | 63.7%
23 | B23 | 80.3%
24 | B24 | 69.1%
25 | B25 | 106%
26 | B26 | 88.1%

Molecular target: T2, FcγRIa extracellular domain, C-terminal His tag (human, UniProt P12314 16-292)
T2 construct: extracellular domain; also called 1a
Assay: as above
Description: as §1

T2 sequence (P12314 other isoform, or with tags, fused parts or gaps): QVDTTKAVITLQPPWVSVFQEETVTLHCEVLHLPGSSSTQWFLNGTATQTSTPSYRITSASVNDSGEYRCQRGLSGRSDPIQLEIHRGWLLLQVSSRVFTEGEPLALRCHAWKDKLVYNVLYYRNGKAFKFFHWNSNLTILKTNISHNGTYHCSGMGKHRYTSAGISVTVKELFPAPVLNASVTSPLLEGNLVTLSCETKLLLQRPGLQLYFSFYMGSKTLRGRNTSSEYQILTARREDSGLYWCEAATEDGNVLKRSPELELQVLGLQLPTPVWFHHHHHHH

Row | Binder | He/Con 1a
27 | B1 | 103%
28 | B2 | 102%
29 | B3 | 107%
30 | B4 | 101%
31 | B5 | 110%
32 | B6 | 102%
33 | B7 | 108%
34 | B8 | 102%
35 | B9 | 105%
36 | B10 | 102%
37 | B11 | 106%
38 | B12 | 102%
39 | B13 | 108%
40 | B14 | 102%
41 | B15 | 106%
42 | B16 | 105%
43 | B17 | 102%
44 | B18 | 107%
45 | B19 | 106%
46 | B20 | 110%
47 | B21 | 103%
48 | B22 | 101%
49 | B23 | 105%
50 | B24 | 103%
51 | B25 | 106%
52 | B26 | 106%

Molecular target: T3, FcγRIIa(H) extracellular domain, C-terminal His tag (human, UniProt P12318 34-217)
T3 construct: extracellular domain; also called 2aH
T3 sequence: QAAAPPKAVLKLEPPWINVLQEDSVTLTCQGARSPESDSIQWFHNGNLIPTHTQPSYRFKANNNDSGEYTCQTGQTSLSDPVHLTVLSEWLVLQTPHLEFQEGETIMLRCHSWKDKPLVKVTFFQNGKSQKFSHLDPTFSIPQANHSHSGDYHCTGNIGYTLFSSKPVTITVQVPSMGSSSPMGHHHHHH
Assay: as above
Description: as §1

Row | Binder | He/Con 2aH
53 | B1 | 102%
54 | B2 | 120%
55 | B3 | 95.4%
56 | B4 | 101%
57 | B5 | 109%
58 | B6 | 101%
59 | B7 | 108%
60 | B8 | 94%
61 | B9 | 105%
62 | B10 | 97.2%
63 | B11 | 101%
64 | B12 | 96.1%
65 | B13 | 94.3%
66 | B14 | 83.7%
67 | B15 | 103%
68 | B16 | 104%
69 | B17 | 103%
70 | B18 | 120%
71 | B19 | 107%
72 | B20 | 82.6%
73 | B21 | 89.1%
74 | B22 | 74.2%
75 | B23 | 97.8%
76 | B24 | 101%
77 | B25 | 116%
78 | B26 | 104%

Molecular target: T4, FcγRIIb extracellular domain, C-terminal His tag (human, UniProt P31994 43-217)
T4 construct: extracellular domain; also called 2b
T4 sequence: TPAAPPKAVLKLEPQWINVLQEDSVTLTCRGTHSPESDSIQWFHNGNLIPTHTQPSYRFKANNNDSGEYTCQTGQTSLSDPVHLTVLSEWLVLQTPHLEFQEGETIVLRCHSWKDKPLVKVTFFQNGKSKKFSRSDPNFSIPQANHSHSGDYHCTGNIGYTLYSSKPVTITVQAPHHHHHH
Assay: as above
Description: as §1

Row | Binder | He/Con 2b
79 | B1 | 100%
80 | B2 | 97.4%
81 | B3 | 105%
82 | B4 | 92.7%
83 | B5 | 96.5%
84 | B6 | 92.8%
85 | B7 | 175%
86 | B8 | 99.4%
87 | B9 | 114%
88 | B10 | 89.4%
89 | B11 | 122%
90 | B12 | 87.5%
91 | B13 | 90.5%
92 | B14 | 73.8%
93 | B15 | 110%
94 | B16 | 72.7%
95 | B17 | 106%
96 | B18 | 96.1%
97 | B19 | 142%
98 | B20 | 63.2%
99 | B21 | 80.5%
100 | B22 | 67.4%
101 | B23 | 70.4%
102 | B24 | 93.5%
103 | B25 | 110%
104 | B26 | 90.5%

Molecular target: T5, FcγRIIa(R) extracellular domain, C-terminal His tag (human, UniProt P12318 34-217)
T5 construct: extracellular domain; also called 2aR
T5 sequence: T3 sequence with H134R
Assay: as above
Description: as §1

Row | Binder | He/Con 2aR
105 | B1 | 101%
106 | B2 | 90.9%
107 | B3 | 105%
108 | B4 | 96.2%
109 | B5 | 96.8%
110 | B6 | 99.6%
111 | B7 | 127%
112 | B8 | 98.2%
113 | B9 | 103%
114 | B10 | 98.6%
115 | B11 | 105%
116 | B12 | 97.5%
117 | B13 | 97.9%
118 | B14 | 90.3%
119 | B15 | 104%
120 | B16 | 78.6%
121 | B17 | 103%
122 | B18 | 96.9%
123 | B19 | 119%
124 | B20 | 66.6%
125 | B21 | 95.3%
126 | B22 | 73.1%
127 | B23 | 72.4%
128 | B24 | 100%
129 | B25 | 105%
130 | B26 | 92.9%
